Experimental data from patent WO2011147762A2.

What was measured:
[1] = target: ED-B fibronectin antigen protein (recombinant), bound to CNBr activated sepharose 4B (UniProt P02751); assay: ED-B sepharose column, % of total radioactivity bound; Study B3; inositol 10 mg/mL; day 3
[2] = target: ED-B fibronectin antigen protein (recombinant), bound to CNBr activated sepharose 4B (UniProt P02751); assay: ED-B sepharose column, % of total radioactivity bound; Study A; inositol 50 mg/mL; day 5
[3] = target: ED-B fibronectin antigen protein (recombinant), bound to CNBr activated sepharose 4B (UniProt P02751); assay: ED-B sepharose column, % of total radioactivity bound; Study B3; no-excipient control (PBS); day 1
[4] = target: ED-B fibronectin antigen protein (recombinant), bound to CNBr activated sepharose 4B (UniProt P02751); assay: ED-B sepharose column, % of total radioactivity bound; Study A; no-excipient control (saline); day 3
[5] = target: ED-B fibronectin antigen protein (recombinant), bound to CNBr activated sepharose 4B (UniProt P02751); assay: ED-B sepharose column, % of total radioactivity bound; Study A; inositol 25 mg/mL; day 7
[6] = target: ED-B fibronectin antigen protein (recombinant), bound to CNBr activated sepharose 4B (UniProt P02751); assay: ED-B sepharose column, % of total radioactivity bound; Study A; inositol 5 mg/mL; day 7
[7] = target: ED-B fibronectin antigen protein (recombinant), bound to CNBr activated sepharose 4B (UniProt P02751); assay: ED-B sepharose column, % of total radioactivity bound; Study A; methionine 25 mg/mL; day 7
[8] = target: ED-B fibronectin antigen protein (recombinant), bound to CNBr activated sepharose 4B (UniProt P02751); assay: ED-B sepharose column, % of total radioactivity bound; Study A; methionine 25 mg/mL; day 3
[9] = target: ED-B fibronectin antigen protein (recombinant), bound to CNBr activated sepharose 4B (UniProt P02751); assay: ED-B sepharose column, % of total radioactivity bound; Study B3; no-excipient control (PBS); day 0
[10] = target: ED-B fibronectin antigen protein (recombinant), bound to CNBr activated sepharose 4B (UniProt P02751); assay: ED-B sepharose column, % of total radioactivity bound; Study B3; thioglycerol 10 mg/mL; day 7
[11] = target: ED-B fibronectin antigen protein (recombinant), bound to CNBr activated sepharose 4B (UniProt P02751); assay: ED-B sepharose column, % of total radioactivity bound; Study A; sodium thiosulfate 50 mg/mL; day 3
[12] = target: ED-B fibronectin antigen protein (recombinant), bound to CNBr activated sepharose 4B (UniProt P02751); assay: ED-B sepharose column, % of total radioactivity bound; Study A; trolox 5 mg/mL; day 3
[13] = target: ED-B fibronectin antigen protein (recombinant), bound to CNBr activated sepharose 4B (UniProt P02751); assay: ED-B sepharose column, % of total radioactivity bound; Study A; sodium thiosulfate 50 mg/mL; day 1
[14] = target: ED-B fibronectin antigen protein (recombinant), bound to CNBr activated sepharose 4B (UniProt P02751); assay: ED-B sepharose column, % of total radioactivity bound; Study A; sodium thiosulfate 50 mg/mL; day 7
[15] = target: ED-B fibronectin antigen protein (recombinant), bound to CNBr activated sepharose 4B (UniProt P02751); assay: ED-B sepharose column, % of total radioactivity bound; Study A; sodium thiosulfate 50 mg/mL; day 5
[16] = target: ED-B fibronectin antigen protein (recombinant), bound to CNBr activated sepharose 4B (UniProt P02751); assay: ED-B sepharose column, % of total radioactivity bound; Study B3; thioglycerol 10 mg/mL; day 5
[17] = target: ED-B fibronectin antigen protein (recombinant), bound to CNBr activated sepharose 4B (UniProt P02751); assay: ED-B sepharose column, % of total radioactivity bound; Study A; inositol 50 mg/mL; day 1
[18] = target: ED-B fibronectin antigen protein (recombinant), bound to CNBr activated sepharose 4B (UniProt P02751); assay: ED-B sepharose column, % of total radioactivity bound; Study A; sodium thiosulfate 10 mg/mL; day 0
[19] = target: ED-B fibronectin antigen protein (recombinant), bound to CNBr activated sepharose 4B (UniProt P02751); assay: ED-B sepharose column, % of total radioactivity bound; Study A; methionine 10 mg/mL; day 3
[20] = target: ED-B fibronectin antigen protein (recombinant), bound to CNBr activated sepharose 4B (UniProt P02751); assay: ED-B sepharose column, % of total radioactivity bound; Study A; methionine 25 mg/mL; day 1
[21] = target: ED-B fibronectin antigen protein (recombinant), bound to CNBr activated sepharose 4B (UniProt P02751); assay: ED-B sepharose column, % of total radioactivity bound; Study A; maltose 5 mg/mL; day 5
[22] = target: ED-B fibronectin antigen protein (recombinant), bound to CNBr activated sepharose 4B (UniProt P02751); assay: ED-B sepharose column, % of total radioactivity bound; Study B3; no-excipient control (PBS); day 2
[23] = target: ED-B fibronectin antigen protein (recombinant), bound to CNBr activated sepharose 4B (UniProt P02751); assay: ED-B sepharose column, % of total radioactivity bound; Study B3; no-excipient control (PBS); day 5
[24] = target: ED-B fibronectin antigen protein (recombinant), bound to CNBr activated sepharose 4B (UniProt P02751); assay: ED-B sepharose column, % of total radioactivity bound; Study A; sodium thiosulfate 5 mg/mL; day 1
[25] = target: ED-B fibronectin antigen protein (recombinant), bound to CNBr activated sepharose 4B (UniProt P02751); assay: ED-B sepharose column, % of total radioactivity bound; Study A; maltose 50 mg/mL; day 0
[26] = target: ED-B fibronectin antigen protein (recombinant), bound to CNBr activated sepharose 4B (UniProt P02751); assay: ED-B sepharose column, % of total radioactivity bound; Study A; methionine 10 mg/mL; day 5
[27] = target: ED-B fibronectin antigen protein (recombinant), bound to CNBr activated sepharose 4B (UniProt P02751); assay: ED-B sepharose column, % of total radioactivity bound; Study A; methionine 5 mg/mL; day 7
[28] = target: ED-B fibronectin antigen protein (recombinant), bound to CNBr activated sepharose 4B (UniProt P02751); assay: ED-B sepharose column, % of total radioactivity bound; Study A; maltose 25 mg/mL; day 1

UniProt P02751, sequence (P02751 1266-1356 limits assumed): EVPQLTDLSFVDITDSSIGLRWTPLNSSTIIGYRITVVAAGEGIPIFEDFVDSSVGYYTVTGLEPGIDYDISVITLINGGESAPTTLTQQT
131I L19-SIP (radioiodinated L19 SIP homodimer), sequence (chain): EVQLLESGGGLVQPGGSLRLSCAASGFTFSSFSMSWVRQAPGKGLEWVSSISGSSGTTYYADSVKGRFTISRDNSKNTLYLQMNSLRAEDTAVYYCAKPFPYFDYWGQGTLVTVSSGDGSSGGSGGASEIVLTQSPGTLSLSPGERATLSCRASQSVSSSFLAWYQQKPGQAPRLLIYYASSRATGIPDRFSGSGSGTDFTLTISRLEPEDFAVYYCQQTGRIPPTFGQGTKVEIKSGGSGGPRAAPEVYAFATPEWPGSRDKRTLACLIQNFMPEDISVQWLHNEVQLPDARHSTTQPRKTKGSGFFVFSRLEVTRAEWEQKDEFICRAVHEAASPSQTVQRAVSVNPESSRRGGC
131I L19-SIP (radioiodinated L19 SIP homodimer), sequence (chain): as above

Substance: 131I L19-SIP (radioiodinated L19 SIP homodimer)
- Immunoreactivity (IR) (%) [1]: 74.8%
- Immunoreactivity (%) [2]: 63.7%
- Immunoreactivity (IR) (%) [3]: 73.2%
- Immunoreactivity (%) [4]: 59.8%
- Immunoreactivity (%) [5]: 62.8%
- Immunoreactivity (%) [6]: 56.2%
- Immunoreactivity (%) [7]: 58.9%
- Immunoreactivity (%) [8]: 79.6%
- Immunoreactivity (IR) (%) [9]: 74.6%
- Immunoreactivity (IR) (%) [10]: 47.1%
- Immunoreactivity (%) [11]: 91.7%
- Immunoreactivity (%) [12]: 77.6%
- Immunoreactivity (%) [13]: 96.9%
- Immunoreactivity (%) [14]: 88.2%
- Immunoreactivity (%) [15]: 91.5%
- Immunoreactivity (IR) (%) [16]: 46.8%
- Immunoreactivity (%) [17]: 89.3%
- Immunoreactivity (%) [18]: 96.2%
- Immunoreactivity (%) [19]: 75.7%
- Immunoreactivity (%) [20]: 89.6%
- Immunoreactivity (%) [21]: 57%
- Immunoreactivity (IR) (%) [22]: 71.3%
- Immunoreactivity (IR) (%) [23]: 56.4%
- Immunoreactivity (%) [24]: 94.4%
- Immunoreactivity (%) [25]: 89.7%
- Immunoreactivity (%) [26]: 64.2%
- Immunoreactivity (%) [27]: 61%
- Immunoreactivity (%) [28]: 86.4%
